Patent US20120093921A1, “IMMUNOGENIC COMPOSITIONS HAVING LOW SODIUM CHLORIDE CONCENTRATION” (GLAXOSMITHKLINE BIOLOGICALS S.A., priority 2009, published 2012)

Tests used:
[1] = Salting out / precipitation of antigen on reconstitution in adjuvant buffer (visual); format: physicochemical
Method: Accordingly, in one embodiment the antigen or antigenic preparation is any antigen which precipitates, coagulates or aggregates after being dissolved in a solution comprising a concentration of sodium chloride (NaCl) or wherein the ionic strength of the solution is greater than 5 mM, 10 mM, 15 mM, 20 mM, 30 mM, 40 mM, 50 mM, 60 mM, 70 mM, 80 mM, 90 mM or 100 mM. The person skilled in the art can determine whether an antigen meets this definition by dissolving and/or mixing an antigen in such a solution. […] An antigen which precipitates, coagulates or aggregates after being dissolved in a solution comprising a concentration of sodium chloride of 100 mM is one which, after 24 hours or less, can be seen to be precipitating by the cloudiness of the solution. In addition, aggregation that is not detectable visually may be observed using methods known to the skilled person which include, but are not limited to SEC-HPLC.
The resulting lyophilsation cake was reconstituted with 625 μl of aqueous adjuvant composition prepared as in Example 2 comprising 150 mM NaCl. The lyophilsation cake contained a 1.25 fold excess of antigen dose to have the right antigen/adjuvant ratio after reconstitution with a final composition of 16 mM Tris, 4 mM borate, 4% sucrose, 0.24% Poloxamer 188, 840 μg/ml CpG and 1000 μg/ml PRAME.
The resulting lyophilsation cake was reconstituted with 625 μl of ASA buffers (150 mM NaCl and sorbitol).
1. PRAME antigen reconstituted in ASA 150 mM NaCl buffer. 2. PRAME antigen reconstituted in ASA sorbitol buffer. 3. NYESO-1 antigen reconstituted in ASA 150 mM NaCl buffer. 4. NYESO-1 antigen reconstituted in ASA sorbitol buffer.
FIG. 4 is a photographic comparison between PRAME and NYESO-1 reconstituted in ASA (150 mM NaCl) and ASA (sorbitol). […] Similarly, NY-ESO reconstituted in ASA (150 mM NaCl) appears cloudy compared to NY-ESO antigen reconstituted in ASA (sorbitol).

[2] = system: chicken Red Blood cells (RBC); assay: QS21 lytic activity, haemolysis assay (limit test); format: cell-based; conditions: example curve; OD of 0.12
Method: QS21 is known to lyse red blood cells (RBC).
QS21 lytic activity was measured by a haemolysis assay using chicken Red Blood cells (RBC). RBC were centrifuged at 550 g at 4° C. Supernatant was discarded. The pellet was carefully resuspended in PBS buffer to reach the initial volume and the same operation was repeated until supernatant was no longer red (generally 3 times). The pellet was stored at 4° C. for 3 to 4 days maximum if not used directly (and washed again the day it is used) or was diluted around 10 times in buffer if used the same day.
A QS21 dose range curve was prepared in ASA buffer (in salt or in sorbitol buffer following the ASA sample tested) extemporaneously and the adjuvant samples (containing a 50 μg or 90 μg equivalent of QS21 meaning the equivalent of 500 μl or 900 μl ASA) were prepared. Final volume was adjusted to 900 μl in standards and samples with adequate buffer (containing or not sorbitol as a function of the buffer of the sample tested). Due to its opalescence, ASA interferes in optical density (OD). […] Optical density at 540 nm was measured after centrifugation. […]
1. Limit of detection (LOD) was defined as the lowest concentration of QS21 leading to an OD: • Higher than the base level (OD>0.1) • Around three times higher than OD's buffer (the “o μg” QS21) • In the ascendant part of the curve • Determined for each test. […]

| Substance | appearance after reconstitution ([1]; lyophilised with CpG, reconstituted in ASA (150 mM NaCl), compared to ASA (sorbitol), FIG. 4) | salting out in adjuvant composition ([1]; salt concentration reduced to 5 mM and sorbitol included (ASA sorbitol buffer), FIG. 4) | concentration of sodium chloride at which the antigens aggregate and precipitate ([1]; salting out, as low as) | Limit of Detection (lowest concentration of QS21 leading to OD above base level) [2] |
| --- | --- | --- | --- | --- |
| PRAME: tumour protein antigen, described in U.S. Pat. No. 5,830,753; co-lyophilised with CpG 2006 in the examples | cloudy | prevents “salting out” | 150000 µM |  |
| QS21 |  |  |  | 0.9 µg |
